B1: U1-49, anti-HER3 antibody (antibody, V domains shown)
VH: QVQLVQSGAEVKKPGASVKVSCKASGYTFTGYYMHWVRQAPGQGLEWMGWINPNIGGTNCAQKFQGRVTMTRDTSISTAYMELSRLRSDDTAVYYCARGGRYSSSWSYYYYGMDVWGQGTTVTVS
VL: DILMTQTPLSLSVTPGQPASISCKSSQSLLLSDGGTYLYWYLQKPGQPPQLLIYEVSNRFSGVPDRFSGSGSGTDFTLKISRVEAEDVGVYYCMQSMQLPITFGQGTRLEIK
B2: U1-53, anti-HER3 antibody (antibody, V domains shown)
VH: EVQLVESGGGLVQPGGSLRLSCAASGFTFSIYSMNWVRQAPGKGLEWVSYISSSSSTIYYADSVKGRFTISRDNAKNSLYLQMNSLRDEDTAVYYCARDRGDFDAFDIWGQGTMVTVSS
VL: DIQMTQSPSSLSASVGDRVTITCQASQDITNYLNWYQQKPGKAPKLLIYDASNLETGVPSRFSGSGSGTDFTFTISSLQPEDIATYNCQQCENFPITFGQGTRLEIK
B3: U1-59, fully human anti-HER3 monoclonal antibody (antibody, V domains shown)
VH: QVQLQQWGAGLLKPSETLSLTCAVYGGSFSGYYWSWIRQPPGKGLEWIGEINHSGSTNYNPSLKSRVTISVETSKNQFSLKLSSVTAADTAVYYCARDKWTWYFDLWGRGTLVTVSS
VL: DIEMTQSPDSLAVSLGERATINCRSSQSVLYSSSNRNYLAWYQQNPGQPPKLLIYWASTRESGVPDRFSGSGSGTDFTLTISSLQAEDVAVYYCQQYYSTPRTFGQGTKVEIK

molecular target: HER3 on DU-145 and PC-3 prostate cancer cells (UniProt P21860 20-1342, limits assumed); test: cell-based or functional assay
Sequence (P21860 20-1342 limits assumed): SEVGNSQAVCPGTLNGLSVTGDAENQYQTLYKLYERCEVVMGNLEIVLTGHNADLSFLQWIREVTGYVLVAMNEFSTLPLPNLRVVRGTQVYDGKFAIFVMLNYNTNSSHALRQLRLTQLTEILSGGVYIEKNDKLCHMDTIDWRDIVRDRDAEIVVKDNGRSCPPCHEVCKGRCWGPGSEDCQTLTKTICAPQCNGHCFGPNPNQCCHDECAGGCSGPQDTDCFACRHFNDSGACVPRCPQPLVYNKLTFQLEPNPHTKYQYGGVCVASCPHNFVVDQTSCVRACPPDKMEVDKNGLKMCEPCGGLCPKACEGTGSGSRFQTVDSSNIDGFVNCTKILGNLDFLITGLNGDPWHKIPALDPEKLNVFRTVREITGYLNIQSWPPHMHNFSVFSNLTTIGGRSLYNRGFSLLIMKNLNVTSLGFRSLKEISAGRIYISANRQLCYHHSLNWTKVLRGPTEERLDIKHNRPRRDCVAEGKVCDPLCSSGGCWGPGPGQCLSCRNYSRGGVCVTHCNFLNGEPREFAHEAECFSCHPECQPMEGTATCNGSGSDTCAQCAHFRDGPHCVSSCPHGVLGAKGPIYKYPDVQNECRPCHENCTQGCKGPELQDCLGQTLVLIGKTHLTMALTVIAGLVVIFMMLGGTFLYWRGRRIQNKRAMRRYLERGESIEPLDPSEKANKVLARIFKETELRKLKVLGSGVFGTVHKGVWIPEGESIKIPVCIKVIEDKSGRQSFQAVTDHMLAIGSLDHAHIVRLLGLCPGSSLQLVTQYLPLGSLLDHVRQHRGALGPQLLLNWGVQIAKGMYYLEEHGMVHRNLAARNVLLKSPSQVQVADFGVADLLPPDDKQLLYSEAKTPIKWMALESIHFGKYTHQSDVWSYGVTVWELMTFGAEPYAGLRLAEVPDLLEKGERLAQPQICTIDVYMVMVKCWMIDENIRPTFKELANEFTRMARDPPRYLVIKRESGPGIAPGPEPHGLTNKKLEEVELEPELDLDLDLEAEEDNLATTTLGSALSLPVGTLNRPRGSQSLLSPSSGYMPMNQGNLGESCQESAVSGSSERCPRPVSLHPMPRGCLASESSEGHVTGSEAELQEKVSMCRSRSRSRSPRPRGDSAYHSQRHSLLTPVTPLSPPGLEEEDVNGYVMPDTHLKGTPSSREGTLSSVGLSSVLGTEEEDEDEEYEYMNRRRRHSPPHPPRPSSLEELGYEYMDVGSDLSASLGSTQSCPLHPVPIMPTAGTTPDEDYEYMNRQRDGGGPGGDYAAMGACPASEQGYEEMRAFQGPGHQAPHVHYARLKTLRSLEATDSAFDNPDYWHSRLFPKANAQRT

inhibition in colony formation (anchorage independent growth of PC-3 cells, soft agar) | Binder
52% | B1
78% | B2
78% | B3
